Positions count from the first letter of the chain named. Read-outs that look alike come from different tables or passages of the source.
B1: unilateral CD3/CEA/HER2 trispecific antibody 610 (other)
chain 1: EVQLVESGGGFVQAGESLTLSCTSSTLTFTPYRMAWYRQAPGKQRDLVADISSGDGRTTNYADFAKGRFTISRDNIKNTVFLRMTNLKPEDTAVYYCNTFVSFVGIARSWGQGTQVTVSSESKYGPPCPPCPAPEAAGGPSVFLFPPKPKDTLMISRTPEVTCVVVDVSQEDPEVQFNWYVDGVEVHNAKTKPREEQFNSTYRVVSVLTVLHQDWLNGKEYKCKVSNKGLPSSIEKTISKAKGQPREPQVYTLPPCQEEMTKNQVSLWCLVKGFYPSDIAVEWESNGQPENNYKTTPPVLDSDGSFFLYSRLTVDKSRWQEGNVFSCSVMHEALHNHYTQKSLSLSL
chain 2: EVKLLESGGGLVQPKGSLKLSCAASGFTFNTYAMNWVRQAPGKGLEWVARIRSKYNNYATYYADSVKDRFTISRDDSQSILYLQMNNLKTEDTAMYYCVRHGNFGNSYVSWFAYWGQGTLVTVSSASTKGPSVFPLAPCSRSTSESTAALGCLVKDYFPEPVTVSWNSGALTSGVHTFPAVLQSSGLYSLSSVVTVPSSSLGTKTYTCNVDHKPSNTKVDKRVESKYGPPCPPCPAPEAAGGPSVFLFPPKPKDTLMISRTPEVTCVVVDVSQEDPEVQFNWYVDGVEVHNAKTKPREEQFNSTYRVVSVLTVLHQDWLNGKEYKCKVSNKGLPSSIEKTISKAKGQPREPQVCTLPPSQEEMTKNQVSLSCAVKGFYPSDIAVEWESNGQPENNYKTTPPVLDSDGSFFLVSRLTVDKSRWQEGNVFSCSVMHEALHNRFTQKSLSLSL
chain 3: QVQLVQSGGGLVQAGGSLRLSCAASGRTFSSYAMAWFRQAPGKEREFVAAISWSGANIYVADSVKGRFTISRDNAKDTVYLQMNSLKPEDTAVYYCAVKLGFAPVEERQYDYWGQGTQVTVSSGGGGSGGGGSQAVVTQESALTTSPGETVTLTCRSSTGAVTTSNYANWVQEKPDHLFTGLIGGTNKRAPGVPARFSGSLIGDKAALTITGAQTEDEAIYFCALWYSNLWVFGGGTKVEIKRTVAAPSVFIFPPSDEQLKSGTASVVCLLNNFYPREAKVQWKVDNALQSGNSQESVTEQDSKDSTYSLSSTLTLSKADYEKHKVYACEVTHQGLSSPVTKSFNRGEC
B2: CEA-BsAb (CD3 TA1-Fab x CEA VHH bispecific control antibody) (bispecific antibody, human IgG4 S228P, kappa, F234A L235A)
heavy: B1 chain 2 with C354Y, S359C, S371W, A373L, V412Y, R440H, F441Y
chain: B1 chain 1 with Y251C, C256S, W268S, L270A, Y309V, H337R, Y338F
light: QAVVTQESALTTSPGETVTLTCRSSTGAVTTSNYANWVQEKPDHLFTGLIGGTNKRAPGVPARFSGSLIGDKAALTITGAQTEDEAIYFCALWYSNLWVFGGGTKVEIKRTVAAPSVFIFPPSDEQLKSGTASVVCLLNNFYPREAKVQWKVDNALQSGNSQESVTEQDSKDSTYSLSSTLTLSKADYEKHKVYACEVTHQGLSSPVTKSFNRGEC
B3: unilateral CD3/CEA-CAM6/HER2 trispecific antibody 710 (other)
chain 1: QVKLEESGGGLVQAGGSLRLSCRTSGRTNSVYTMGWFRQAPGKEREFVAQIMWGAGTNTHYADSVKGRFTISRDSAESTVYLQMNSLKPEDTAVYYCAANRGIPIAGRQYDYWGQGTQVTVSSESKYGPPCPPCPAPEAAGGPSVFLFPPKPKDTLMISRTPEVTCVVVDVSQEDPEVQFNWYVDGVEVHNAKTKPREEQFNSTYRVVSVLTVLHQDWLNGKEYKCKVSNKGLPSSIEKTISKAKGQPREPQVYTLPPCQEEMTKNQVSLWCLVKGFYPSDIAVEWESNGQPENNYKTTPPVLDSDGSFFLYSRLTVDKSRWQEGNVFSCSVMHEALHNHYTQKSLSLSL
chain 2: B1 chain 2
chain 3: B1 chain 3
B4: unilateral CD3/CEA-CAM6/HER2 trispecific antibody 711 (other)
chain 1: QVQLVQSGGGLVQAGGSLRLSCAASGRTFSSYAMAWFRQAPGKEREFVAAISWSGANIYVADSVKGRFTISRDNAKDTVYLQMNSLKPEDTAVYYCAVKLGFAPVEERQYDYWGQGTQVTVSSGGGGSGGGGSEVKLLESGGGLVQPKGSLKLSCAASGFTFNTYAMNWVRQAPGKGLEWVARIRSKYNNYATYYADSVKDRFTISRDDSQSILYLQMNNLKTEDTAMYYCVRHGNFGNSYVSWFAYWGQGTLVTVSSASTKGPSVFPLAPCSRSTSESTAALGCLVKDYFPEPVTVSWNSGALTSGVHTFPAVLQSSGLYSLSSVVTVPSSSLGTKTYTCNVDHKPSNTKVDKRVESKYGPPCPPCPAPEAAGGPSVFLFPPKPKDTLMISRTPEVTCVVVDVSQEDPEVQFNWYVDGVEVHNAKTKPREEQFNSTYRVVSVLTVLHQDWLNGKEYKCKVSNKGLPSSIEKTISKAKGQPREPQVYTLPPCQEEMTKNQVSLWCLVKGFYPSDIAVEWESNGQPENNYKTTPPVLDSDGSFFLYSRLTVDKSRWQEGNVFSCSVMHEALHNHYTQKSLSLSL
chain 2: B3 chain 1 with Y254C, C259S, W271S, L273A, Y312V, H340R, Y341F
chain 3: B2 light

Experiments:
Experiment in all cases: BLI, antibody on AHC sensor, antigen as analyte
[1] = biological target: T1, recombinant human protein CD3ε/δ (ACRO systems, CDD-H52W1) (human, UniProt P07766 23-126; P04234 22-105)
T1 construct: Bought heterodimer
Protocol: (§1) Antibodies were first captured onto an anti-human IgG Fc coated AHC biosensor (Anti-hIgG Fc, Sartorius, 18-5060). Antibodies were diluted to 5 μg/mL and 1.5 nm protein was coupled to the AHC sensor surface in 0.02% PBST.
(§2) After the sensor captures the antibodies, it binds and dissociates with different concentrations of analytes to obtain the KD value of the interaction. The experimental parameters are as follows: Baseline1: 60 s, Loading: 240 s, Baseline2: 180 s, Association: 240 s, Dissociation: 600 s, High sensitivity kinetics: 2 Hz. Kinetic constants were derived based on the rate equation for 1:1 Langmuir binding to obtain equilibrium dissociation constants (KD). The Data Analysis HT 12 software (Sartorius, 50-5029) was used to simultaneously fit binding and dissociation curves to calculate Kₒₙ and Koff. The affinity KD was calculated based on the below formula: KD=Koff/Kₒₙ.

[2] = biological target: T2, recombinant human tumor antigen HER2 (ERBB2, ACRO systems, HE2-H5212) (human, UniProt P04626 23-652)
T2 construct: Bought
Protocol: as §1, §2

[3] = biological target: T3, recombinant human tumor antigen CEA (CEACAM-5/CD66e, ACRO systems, CE5-H5226) (human, UniProt P06731 35-685)
T3 construct: Bought
T3 sequence (looked up): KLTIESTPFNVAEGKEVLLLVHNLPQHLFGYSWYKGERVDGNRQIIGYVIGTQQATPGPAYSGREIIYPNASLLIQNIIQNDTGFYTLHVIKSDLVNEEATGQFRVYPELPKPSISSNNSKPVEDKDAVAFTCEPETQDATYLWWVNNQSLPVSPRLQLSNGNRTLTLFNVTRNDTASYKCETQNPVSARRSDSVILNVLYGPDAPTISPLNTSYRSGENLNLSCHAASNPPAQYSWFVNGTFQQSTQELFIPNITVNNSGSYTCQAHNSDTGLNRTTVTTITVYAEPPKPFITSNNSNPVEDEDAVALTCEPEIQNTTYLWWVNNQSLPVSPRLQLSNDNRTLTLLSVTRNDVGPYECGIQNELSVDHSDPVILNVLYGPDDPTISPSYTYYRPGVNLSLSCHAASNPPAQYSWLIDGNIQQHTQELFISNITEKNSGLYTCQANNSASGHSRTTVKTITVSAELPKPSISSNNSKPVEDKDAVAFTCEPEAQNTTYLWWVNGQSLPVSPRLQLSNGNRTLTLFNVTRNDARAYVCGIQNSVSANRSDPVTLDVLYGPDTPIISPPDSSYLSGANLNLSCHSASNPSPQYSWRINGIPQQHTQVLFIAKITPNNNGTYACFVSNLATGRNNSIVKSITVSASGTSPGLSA
Protocol: as §1, §2

[4] = biological target: T4, recombinant human tumor antigen CEACAM-6 (ACRO systems, CE6-H5223) (human, UniProt P40199 35-320)
T4 construct: Bought
T4 sequence (looked up): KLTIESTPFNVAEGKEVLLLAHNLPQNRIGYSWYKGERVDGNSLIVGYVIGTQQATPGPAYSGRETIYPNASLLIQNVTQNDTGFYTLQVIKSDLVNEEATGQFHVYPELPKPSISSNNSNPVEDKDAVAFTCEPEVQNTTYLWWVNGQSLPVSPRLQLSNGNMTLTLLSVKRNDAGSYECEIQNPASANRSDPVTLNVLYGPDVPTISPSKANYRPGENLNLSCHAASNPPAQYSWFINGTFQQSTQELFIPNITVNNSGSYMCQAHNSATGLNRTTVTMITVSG

[5] = biological target: T2, recombinant human tumor antigen HER2 …; remark: listed apart in the source
[6] = biological target: T1, recombinant human protein CD3ε/δ (ACRO …); remark: listed apart in the source

T1 sequence (P07766 23-126, stated change not applied, chain 1 of 2): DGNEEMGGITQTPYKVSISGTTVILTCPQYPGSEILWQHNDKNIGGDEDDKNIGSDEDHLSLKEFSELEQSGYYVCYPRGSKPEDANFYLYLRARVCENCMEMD
T1 sequence (P04234 22-105, stated change not applied, chain 2 of 2): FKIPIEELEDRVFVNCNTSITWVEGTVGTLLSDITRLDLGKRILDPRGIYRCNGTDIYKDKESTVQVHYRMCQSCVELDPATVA

Binder	Kd [1] [nM]	koff [1] [s⁻¹]	kon [1] [M⁻¹ s⁻¹]	Kd [2] [nM]	koff [2] [s⁻¹]	kon [2] [M⁻¹ s⁻¹]	Kd [3] [nM]	koff [3] [s⁻¹]	kon [3] [M⁻¹ s⁻¹]	Kd [4] [nM]	koff [4] [s⁻¹]	kon [4] [M⁻¹ s⁻¹]	Kd [5] [nM]	koff [5] [s⁻¹]	kon [5] [M⁻¹ s⁻¹]	Kd [6] [nM]	koff [6] [s⁻¹]	kon [6] [M⁻¹ s⁻¹]
B1	1.47	0.000402	273000	53.5	0.00914	171000	0.153	8.05e-05	525000									
B2	1.64	0.00045	275000		0.027	3680												
B3										4.48	0.00179	398000	15.4	0.00383	249000	0.686	0.000127	186000
B4										4.52	0.00254	562000	38.9	0.00888	228000	1.41	0.000516	367000
